Patent publication US4740588A, “Novel substrate peptides” (Washington University, priority 1986, dated 1988)
Values belong to the molecule of their own block, whether it stands above or below them. Residues, ends and D or L forms follow the SMILES beside them.

Experiments:
[1] = target: T1, N-myristoylglycylpeptide synthetase (N-myristoyl transferase) (Saccharomyces cerevisiae, UniProt P14743); assay: Assay for N-myristoylglycylpeptide synthetase activity, crude membrane fractions from yeast; type: biochemical; details: for activity as substrate for myristoylglycylpeptide synthetase: result in words
T1 construct: using crude membrane fractions from yeast with changes as indicated; endogenous in cells; host or cells: S. cerevisiae strain JR153 (protease-deficient), crude membrane pellet of the cell lysate
T1 sequence (P14743 1-455): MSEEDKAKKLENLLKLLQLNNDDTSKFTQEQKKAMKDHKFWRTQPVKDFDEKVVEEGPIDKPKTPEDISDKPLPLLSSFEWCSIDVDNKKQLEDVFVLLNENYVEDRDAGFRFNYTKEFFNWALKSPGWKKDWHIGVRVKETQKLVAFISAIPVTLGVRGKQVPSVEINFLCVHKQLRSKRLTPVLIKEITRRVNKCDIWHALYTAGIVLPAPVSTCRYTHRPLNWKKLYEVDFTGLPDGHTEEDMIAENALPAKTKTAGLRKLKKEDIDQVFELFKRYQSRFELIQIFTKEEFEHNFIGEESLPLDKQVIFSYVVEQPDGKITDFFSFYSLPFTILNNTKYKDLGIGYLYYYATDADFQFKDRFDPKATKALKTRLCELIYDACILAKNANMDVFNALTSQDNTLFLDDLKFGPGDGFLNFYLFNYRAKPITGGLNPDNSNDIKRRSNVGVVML
Method: The synthetic octapeptide […]was used to identify a unique enzymatic activity which transfers myristic acid to the amino terminal glycine of this and other peptides. […] The enzyme activity was determined in an in vitro assay which measures the transfer of [^3 H]-myristic acid to the acceptor peptide. The transfer reaction is dependent on adenosine triphosphate (ATP) and coenzyme A (CoA). The enzymatic product was then identified by high performance liquid chromatography (HPLC) by co-elution with a chemically synthesized myristoyl peptide standard. […] Both contained M-myristoyl glycine.
Preparation of yeast extract for the assay of N-myristoylglycylpeptide synthetase activity. Yeast cultures were grown as described above to O.D. 660 nm of 1 to 3. Cells from 40 ml of culture were collected by centrifugation at 4° C. at 7600×g for 10 minutes. The supernatant was decanted, the cell pellet was resuspended by pipetting into 1 ml of cold 10 mM Tris, pH 7.4, transferred to a 1.5 ml conical polypropylene centrifuge tube, and the cells were then repelleted at 4° C. at 7600×g for 10 minutes. Cells were resuspended in 400 μl of cold assay lysis buffer (10 mM Tris, pH 7.4, 1 mM dithiothreitol,0.1 mM ethylene glycol-bis(β-aminoethyl ether) N,N,N',N'-tetraacetic acid (EGTA), 10 μg/ml Aprotinin) by pipetting. Approximately 400 μl of 0.5 mm glass beads were added to the resuspended cells, and the cells were lysed by vortexing as described above for lysis of radioactively labeled cells. After allowing the beads to settle, the lysate was collected and cellular debris was removed by centrifugation at 4° C. at 1000×g for 10 minutes. The supernatant was then centrifuged at 4° C. at 45,000 rpm for 30 minutes in a Beckman 75 Ti rotor. The supernatant was removed, and the crude membrane pellet was resuspended by pipetting into 400 μl of cold assay lysis buffer. Aliquots of the three cellular fractions were either assayed immediately or stored at -60° C. The activity associated with crude membranes was stable at -60° C. for at least 3 months. Protein was determined by the method of Peterson, Anal. Biochem. 83, 346-356 (1977).
Assay for N-myristoylglycylpeptide synthetase activity. [^3 H]Fatty acyl CoA was synthesized enzymatically and added to the incubation as follows. […] Typically, 40% to 50% of the [^3 H]fatty acid was converted to its CoA ester by this procedure as measured by determining the radioactivity remaining in the reaction after acidification with 6 N HCl to pH 2.0 and extraction 6 times with 5 volumes of heptane, a modification of the method of Hosaka et al., Meth. […]

[2] = substrate: CC(C)C[C@H](NC(=O)[C@@H]1CCCN1C(=O)[C@H](Cc1ccc(O)cc1)NC(=O)[C@H](CO)NC(=O)[C@H](C)NC(=O)[C@H](CCC(=O)O)NC(=O)[C@H](CC(N)=O)NC(=O)CN)C(N)=O; assay: Peptide substrate specificity (Km, Vmax) of partially purified yeast myristoylating enzyme; type: biochemical, S. cerevisiae strain JR153; details: other: peptide as acyl acceptor, 1 μCi [3H]-myristic acid per tube, 30.0 °C
Method: (§1) Assay for N-myristoylglycylpeptide synthetase activity. [^3 H]Fatty acyl CoA was synthesized enzymatically and added to the incubation as follows. The acyl CoA synthetase reaction consisted of (per one assay tube): 0.5 μCi of [^3 H]myristic acid; 25 μl of 2× assay buffer (20 mM Tris, pH 7.4, 2 mM dithiothreitol, 10 mM MgCl2, 0.2 mM EGTA); 5 μl of 50 mM ATP in distilled water, adjusted to pH 7.0 with NaOH; 2.5 μl of 20 mM lithium CoA in distilled water; 15 μl of 1mU/μl of Pseudomonas acyl CoA synthetase (Sigma) in 50 mM N-2-hydroxyethylpiperazine-N'-2-ethane sulfonic acid, pH 7.3; 2.5 μl of distilled water. The reaction was allowed to proceed for 20 minutes at 30° C. Typically, 40% to 50% of the [^3 H]fatty acid was converted to its CoA ester by this procedure as measured by determining the radioactivity remaining in the reaction after acidification with 6 N HCl to pH 2.0 and extraction 6 times with 5 volumes of heptane, a modification of the method of Hosaka et al., Meth. […] The assay was initiated by the addition of 10 μl of yeast cell extract (typically 50 μg of protein) per tube, followed by incubation at 30° C. for 10 min. The assay was terminated by the addition of 110 μl of methanol and 10 μl of 100% trichloracetic acid (w/v) per tube, followed by cooling ten minutes on ice. Precipitated protein was removed by centrifugation at 8000×g for 3 minutes in a tabletop Eppendorf centrifuge. […] One minute fractions were collected and the radioactivity in each fraction determined by liquid scintillation counting. [^3 H]-Myristoyl-[sequence]eluted at 24 minutes, while [^3 H]palmitoyl-[sequence]eluted at 30 minutes.
(§2) The peptide substrate specificity of the enzyme was tested under the assay conditions described in Example 2 but using 1 μCi of [^3 H]-myristic acid per assay tube. The yeast enzyme used in this example was partially purified from a crude homogenate of the cultured yeast cells by fractionation with 51-70% (NH4)2 SO4 followed by ion exchange column chromatography with DEAE-Sepharose® CL-6B (Pharmacia) and affinity chromatography with CoA-agarose affinity matrix (Pharmacia).

[3] = substrate: C[C@H](NC(=O)CN)C(=O)N[C@@H](CCC(N)=O)C(=O)N[C@@H](C)C(=O)N[C@@H](C)C(=O)N[C@@H](C)C(=O)N[C@@H](CCCNC(=N)N)C(=O)N[C@@H](CCCNC(=N)N)C(N)=O; assay: as above; type: biochemical, S. cerevisiae strain JR153; details: other: peptide as acyl acceptor, 1 μCi [3H]-myristic acid per tube, 30.0 °C
Method: as §1, §2

[4] = substrate: C[C@H](NC(=O)[C@H](C)NC(=O)[C@H](C)NC(=O)[C@H](C)NC(=O)[C@H](CC(N)=O)NC(=O)CN)C(N)=O; assay: as above; type: biochemical, S. cerevisiae strain JR153; details: other: peptide as acyl acceptor, 1 μCi [3H]-myristic acid per tube, 30.0 °C
Method: as §1, §2

[5] = substrate: C[C@H](NC(=O)[C@H](C)NC(=O)[C@H](C)NC(=O)[C@H](CCC(N)=O)NC(=O)CN)C(=O)N[C@@H](C)C(=O)N[C@@H](CCCNC(=N)N)C(=O)N[C@@H](CCCNC(=N)N)C(N)=O; assay: as above; type: biochemical, S. cerevisiae strain JR153; details: other: peptide as acyl acceptor, 1 μCi [3H]-myristic acid per tube, 30.0 °C
Method: as §1, §2

[6] = substrate: C[C@H](NC(=O)[C@H](C)NC(=O)[C@H](C)NC(=O)[C@H](CO)NC(=O)CN)C(=O)N[C@@H](C)C(=O)N[C@@H](CCCNC(=N)N)C(=O)N[C@@H](CCCNC(=N)N)C(N)=O; assay: as above; type: biochemical, S. cerevisiae strain JR153; details: other: peptide as acyl acceptor, 1 μCi [3H]-myristic acid per tube, 30.0 °C
Method: as §1, §2

[7] = substrate: C[C@H](NC(=O)[C@H](C)NC(=O)[C@H](CC(N)=O)NC(=O)CN)C(=O)N[C@@H](CO)C(N)=O; assay: as above; type: biochemical, S. cerevisiae strain JR153; details: other: peptide as acyl acceptor, 1 μCi [3H]-myristic acid per tube, 30.0 °C
Method: as §1, §2

[8] = substrate: C[C@H](NC(=O)[C@H](C)NC(=O)[C@H](CCC(=O)O)NC(=O)[C@H](CC(N)=O)NC(=O)CN)C(=O)N[C@@H](C)C(=O)N[C@@H](CCCNC(=N)N)C(=O)N[C@@H](CCCNC(=N)N)C(N)=O; assay: as above; type: biochemical, S. cerevisiae strain JR153; details: other: peptide as acyl acceptor, 1 μCi [3H]-myristic acid per tube, 30.0 °C
Method: as §1, §2

[9] = substrate: C[C@H](NC(=O)[C@H](C)NC(=O)[C@H](CCCNC(=N)N)NC(=O)[C@H](CC(N)=O)NC(=O)CN)C(=O)N[C@@H](C)C(=O)N[C@@H](CCCNC(=N)N)C(=O)N[C@@H](CCCNC(=N)N)C(N)=O; assay: as above; type: biochemical, S. cerevisiae strain JR153; details: other: peptide as acyl acceptor, 1 μCi [3H]-myristic acid per tube, 30.0 °C
Method: as §1, §2

[10] = substrate: C[C@H](NC(=O)[C@H](C)NC(=O)[C@H](Cc1ccccc1)NC(=O)[C@H](CC(N)=O)NC(=O)CN)C(=O)N[C@@H](C)C(=O)N[C@@H](CCCNC(=N)N)C(=O)N[C@@H](CCCNC(=N)N)C(N)=O; assay: as above; type: biochemical, S. cerevisiae strain JR153; details: other: peptide as acyl acceptor, 1 μCi [3H]-myristic acid per tube, 30.0 °C
Method: as §1, §2

Molecule: GSSKSPKDPS
Rate of Myristoylpeptide Synthesis ([1]; Test 3: 1 mM test peptide added as competitor, 18 μM GlyAsnAlaAlaAlaAlaArgArg substrate, control 26.7): 27.4 DPM × 10^3 /10 min
activity as substrate for myristoylglycylpeptide synthetase [1]: inactive

B1: Yeast Myristoylating Enzyme (Saccharomyces cerevisiae S288C) (protein)
chain: T1 sequence (P14743 1-455)
notes: partially purified from a crude homogenate of the cultured yeast cells; endogenous in cells; host or cells: S. cerevisiae strain JR153
Km [2]: 2300 µM
Km [3]: 1400 µM
Km [4]: 1300 µM
Km [5]: 70 µM
Km [6]: 1700 µM
Km [7]: 900 µM
Km [8]: 1800 µM
Km [9]: 400 µM
Km [10]: 60 µM

The next lines start with the values.

activity as substrate for myristoylglycylpeptide synthetase [1]: inactive
Molecule: N=C(N)NCCC[C@H](NC(=O)[C@@H]1CCCN1C(=O)CN)C(=O)N1CCC[C@H]1C(N)=O [GPRP, Gly-Pro-Arg-Pro] (H-GPRP-NH2)

activity as substrate for myristoylglycylpeptide synthetase [1]: inactive
Molecule: NCC(=O)N[C@@H](CC(N)=O)C(N)=O [GN, Gly-Asn] (H-Gly-Asn-NH2)
